Tests used:
[1] = system: NF-κB; test: NF-κB activation in human islets; type: cell-based; conditions: 33.3 mM glucose with IL-1Ra 500 ng/ml, 44 hours
Method: Western blot analysis. Islets were cultured in a culture medium in non-adherent plastic dishes. One day after isolation, the medium was changed and groups of 200 islets were incubated for 44 hours in culture medium containing 5.5 or 33.3 mM glucose without or with 2 ng/ml IL-1β or 500 ng/ml IL-1Ra. At the end of the incubations, islets were washed in PBS, suspended in 50 μl sample buffer containing 125 mM Tris-HCl, pH 6.8, 4% SDS, 10% glycerol, 0.3% bromphenol blue, 1.8% β-mercaptoethanol and boiled for 5 min. Equivalent amounts of each treatment group were run on 15% SDS polyacrylamide gels. […] Intensity of bands was analyzed using Multianalyst™ (Bio Rad, Laboratories inc., Hercules, Calif.). […] Activation of NF-κB complex was quantified with an ELISA-based Kit, using attached oligonucleotides binding to a NF-κB consensus site and detected by an anti-p65 or p50 subunit antibody, according to the manufacturer's instructions (Trans-AM™ NFκB, Active Motif). […] Sections were incubated with mouse anti-NF-κB (p65) (1:50 dilution) or rabbit anti-IκB (1:50 dilution, C-21, Santa Cruz) antibodies, detected by donkey anti-mouse or anti-rabbit Cy3 conjugated antibodies and double stained for insulin as described above.

[2] = cited from earlier work
[3] = system: human islets β-cells; test: Detection of IL-1β expressing β-cells in cultured human islets (double immunostaining); type: cell-based; conditions: 33.3 mM glucose, 4 days, co-incubation with IL-1Ra
Method: Islet isolation and culture. Islets were isolated from pancreases of eleven organ donors at the Department of Surgery, University of Geneva Medical Center, as described (32-34). The islet purity was >95%, as judged by dithizone staining (if this degree of purity was not primarily achieved by routine isolation, islets were handpicked). […] For long-term in vitro studies, the islets were cultured on extracellular matrix-coated plates derived from bovine corneal endothelial cells (Novamed Ltd., Jerusalem, Israel), allowing the cells to attach to the dishes and spread, preserving their functional integrity (7;35). Islets were cultured in CMRL 1066 medium containing 100 U/ml penicillin, 100 μg/ml streptomycin and 10% fetal calf serum (Gibco, Gaithersburg, Md.), hereinafter referred to as culture medium. Two days after plating, when most islets were attached and began to flatten, the medium was changed to culture medium containing 5.5, 11.1 or 33.3 mM glucose. In some experiments, islets were additionally cultured with 2 ng/ml recombinant human IL-1β, 1000 U/ml recombinant human IFNγ (ReproTech EC Ltd, London, UK), 500 ng/ml IL-1β receptor antagonist (IL-1Ra) (R&D Systems Inc., Minneapolis, Minn.), 1 ng/ml membrane bound Fas-ligand (FasL) (36) (upstate biotechnology, Lake Placid, N.Y.) or with 100 μM pyrrolidinedithiocarbamate (PDTC; Sigma; 2 h per 2 d of culture). […]

Substance: Interleukin 1 receptor antagonist [IL-1Ra]
- glucose-induced increase in NF-κB activity [1]: prevented
- patients with infections ([2]; human, in vivo): 40%
- patients with serious infections ([2]; human, in vivo): 1.8%
- patients developing neutropenia (absolute neutrophil count 1×10^9/l or less) ([2]; placebo-controlled trials, rheumatoid arthritis): 0.3%
- patients requiring discontinuation of treatment (injection site reactions) ([2]; rheumatoid arthritis patients): up to 5%
- most commonly reported adverse effects ([2]; subcutaneous treatment, rheumatoid arthritis patients): Injection site reactions
- IL-1β positive β-cells (double immunostaining) [3]: displayed similar results

Source: patent publication US7572770B2, “Use of an interleukin 1 receptor antagonist and/or pyrrolidinedithiocarbamate for the treatment or prophylaxis of type 2 diabetes” (University of Zurich, priority 2002, dated 2009)
